Test results reported in US20060052291A1.

Assays:
[1] = target: T1, chimeric Flt3/G-CSF receptor on transfected mouse Baf/3 cells (human) (UniProt P36888); experiment: cell-based or functional assay
T1 sequence (looked up): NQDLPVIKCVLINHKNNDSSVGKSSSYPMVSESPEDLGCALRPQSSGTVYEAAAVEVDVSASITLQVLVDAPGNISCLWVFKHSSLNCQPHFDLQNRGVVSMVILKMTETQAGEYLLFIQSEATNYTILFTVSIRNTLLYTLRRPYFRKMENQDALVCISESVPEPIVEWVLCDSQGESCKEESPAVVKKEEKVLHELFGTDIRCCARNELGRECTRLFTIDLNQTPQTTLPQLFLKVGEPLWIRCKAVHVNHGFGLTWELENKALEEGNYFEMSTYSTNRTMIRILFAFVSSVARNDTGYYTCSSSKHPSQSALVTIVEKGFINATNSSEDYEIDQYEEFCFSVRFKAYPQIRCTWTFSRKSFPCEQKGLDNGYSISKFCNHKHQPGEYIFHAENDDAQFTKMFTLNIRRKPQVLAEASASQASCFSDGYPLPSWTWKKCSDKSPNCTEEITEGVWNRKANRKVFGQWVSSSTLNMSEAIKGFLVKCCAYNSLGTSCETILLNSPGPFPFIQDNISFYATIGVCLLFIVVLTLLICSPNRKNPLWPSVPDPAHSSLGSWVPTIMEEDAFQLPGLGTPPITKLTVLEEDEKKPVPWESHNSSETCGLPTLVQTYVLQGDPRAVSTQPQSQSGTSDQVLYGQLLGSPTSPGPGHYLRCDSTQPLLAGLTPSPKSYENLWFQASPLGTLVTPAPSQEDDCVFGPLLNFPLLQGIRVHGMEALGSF

[2] = target: T2, human G-CSF receptor on transfected mouse BaF3 cells (mBaF3/hG-CSFR) (human) (UniProt Q99062); experiment: cell-based or functional assay
T2 sequence (looked up): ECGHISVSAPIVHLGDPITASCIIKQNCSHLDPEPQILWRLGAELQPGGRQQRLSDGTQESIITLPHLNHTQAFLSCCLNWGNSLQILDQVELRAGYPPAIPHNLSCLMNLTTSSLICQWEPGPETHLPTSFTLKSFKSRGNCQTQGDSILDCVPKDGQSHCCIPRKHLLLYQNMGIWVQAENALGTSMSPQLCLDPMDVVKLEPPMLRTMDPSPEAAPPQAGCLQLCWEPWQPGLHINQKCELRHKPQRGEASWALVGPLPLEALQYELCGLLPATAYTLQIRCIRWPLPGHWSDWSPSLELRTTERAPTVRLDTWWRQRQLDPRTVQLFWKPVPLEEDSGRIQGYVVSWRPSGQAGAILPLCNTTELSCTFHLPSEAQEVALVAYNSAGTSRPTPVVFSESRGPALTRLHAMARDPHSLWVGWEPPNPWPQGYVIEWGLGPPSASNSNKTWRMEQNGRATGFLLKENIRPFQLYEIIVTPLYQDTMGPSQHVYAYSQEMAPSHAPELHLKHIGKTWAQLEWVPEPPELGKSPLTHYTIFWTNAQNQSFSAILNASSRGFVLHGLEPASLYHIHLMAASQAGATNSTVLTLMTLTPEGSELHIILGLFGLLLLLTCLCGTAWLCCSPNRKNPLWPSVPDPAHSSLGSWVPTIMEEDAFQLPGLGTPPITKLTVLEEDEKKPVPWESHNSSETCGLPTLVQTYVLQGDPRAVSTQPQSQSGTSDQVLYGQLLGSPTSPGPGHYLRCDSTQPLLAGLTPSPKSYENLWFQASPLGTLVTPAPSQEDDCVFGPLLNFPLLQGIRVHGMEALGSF

recombinant human G-CSF (from UniProt P09919 31-204) (ligand)
Average EC50 (n = 12), BAF3/Flt cell proliferation ([3H]-thymidine) [1]: > 200 nM
Average EC50 (n = 9), BAF3/G-CSF cell proliferation ([3H]-thymidine) [2]: 0.025 nM
Average Rel. Potency, BAF3/G-CSF cell proliferation [2]: 1

B1: recombinant human flt3 ligand (ligand, UniProt P49771 27-185, looked up)
chain: TQDCSFQHSPISSDFAVKIRELSDYLLQDYPVTVASNLQDEELCGGLWRLVLAQRWMERLKTVAGSKMQGLLERVNTEIHFVTKCAFQPPPSCLRFVQTNISRLLQETSEQLVALKPWITRQNFSRCLELQCQPDSSTLPPPWSPRPLEATAPTAPQPP
Average EC50 (n = 12), BAF3/Flt cell proliferation ([3H]-thymidine) [1]: 0.03 nM
Average Rel. Potency, BAF3/Flt cell proliferation [1]: 1
Average EC50 (n = 9), BAF3/G-CSF cell proliferation ([3H]-thymidine) [2]: > 2 nM
